Article PMC8395317, “The Simple Method of Preparation of Highly Carboxylated Bacterial Cellulose with Ni- and Mg-Ferrite-Based Versatile Magnetic Carrier for Enzyme Immobilization” (International Journal of Molecular Sciences, 2021)

Substrate: CCCC(=O)Oc1ccc([N+](=O)[O-])cc1
Assay: purified protein
Type: biochemical, Moesziomyces antarcticus
Details: free enzyme, 0.1 to 1.2 mmol/L pNPB, 50 mmol/L phosphate pH 7.0, 0.004% Triton X-100, 30 °C

B1: lipase B from Candida antarctica (Lipozyme CALB-L) (Moesziomyces antarcticus) (protein)
chain: LPSGSDPAFSQPKSVLDAGLTCQGASPSSVSKPILLVPGTGTTGPQSFDSNWIPLSTQLGYTPCWISPPPFMLNDTQVNTEYMVNAITALYAGSGNNKLPVLTWSQGGLVAQWGLTFFPSIRSKVDRLMAFAPDYKGTVLAGPLDALAVSAPSVWQQTTGSALTTALRNAGGLTQIVPTTNLYSATDEIVQPQVSNSPLDSSYLFNGKNVQAQAVCGPLFVIDHAGSLTSQFSYVVGRSALRSTTGQARSADYGITDCNPLPANDLTPEQKVAAAALLAPAAAAIVAGPKQNCEPDLMPYARPFAVGKRTCSGIVTP
notes: commercial recombinant enzyme (Lipozyme CALB-L, Sigma-Aldrich), used without further purification; free form
Question: Which Km does the source give for B1 here?
Answer: The Km was 160 ± 10 µM.
